Data taken from patent US20090298178A1, “GROWTH FACTORS FOR PRODUCTION OF DEFINITIVE ENDODERM” (priority 2008, published 2009).

What was measured:
[1] = tested on: hES cells (CyT49; passage 35); experiment: Differentiation of hES cells to definitive endoderm with activin A plus Wnt3a or GSK3 inhibitors, real-time quantitative PCR at 48 hours (Example 4); type: cell-based, human; conditions: with 100 ng/mL activin A; Wnt3a 25, 50 or 75 ng/mL; GSK3 inhibitor No.15 at 10 nM; FIG. 6A-B
Protocol: Undifferentiated hES cells (CyT49; passage 35) were maintained substantially as described in Example 1 above. Ten hES cell culture plates were then differentiated in RPMI (Mediatech) supplemented with Glutamax, penicillin/streptomycin, and varying concentrations of defined FBS (HyClone). FBS concentrations were 0% for the first 24 h and 0.2% for the second 24 h. Additionally, 0.1% BSA (Invitrogen/Gibco) was added on the first day only. All plates received 100 ng/mL activin A for both days. […] Replicate samples were collected from each culture condition at 48 hours after differentiation commenced and analyzed for relative gene expression using real-time quantitative PCR.

[2] = tested on: hES cells (CyT49; passage 35); experiment: Further differentiation to pancreatic endoderm and endocrine cells, real-time PCR at 10 days (Example 4); type: cell-based, human; conditions: definitive endoderm produced using Wnt3a at 50 or 75 ng/ml or GXV at 10 nM, FIG. 7
Protocol: Human ES cell cultures were maintained and differentiated substantially as described above in Example 1, and further differentiated to foregut endoderm (stage 2) and then onto pancreatic endoderm and pancreatic endocrine cells (stages 3 and 4). After 48 hours of differentiation to definitive endoderm (stage 1) the cells were briefly washed in PBS+/+ and then further differentiated in RPMI supplemented with 0.2% FBS, Insulin-Transferrin-Selenium (1:1000), Glutamax, penicillin/streptomycin, and 25 ng/mL KGF (R&D Systems) for 3 days. On the first day of stage 2, the culture also received TGF-beta inhibitor No. 4 (3-(6-Methylpyridin-2-yl)-4-(4-quinolyl)-1-phenylthiocarbamoyl-1H-pyrazole) at 2.5 uM (EMD Bioscience). After three days in stage 2 the cells were then differentiated for one day in DMEM with B27 supplement (1:100) containing all-trans retinoic acid (RA) at 0.2 uM and KAAD-cyclopamine at 0.25 uM. Following the single day of retinoid exposure, the cells were cultured in DMEM with B27 (1:100) containing noggin at 40 ng/ml. […]
However, in this instance, the stage 4 noggin treatment lasted for 4 days, as compared to 3 days in Example 2, and replicate samples were taken for real-time PCR analysis at a total of 10 days of differentiation, as compared to 9 days in Example 2.

B1: Wnt3a: Wnt protein (R&D Systems) activating the Wnt signaling pathway (protein, UniProt P56704 19-352, looked up)
Protein Wnt-3a: SYPIWWSLAVGPQYSSLGSQPILCASIPGLVPKQLRFCRNYVEIMPSVAEGIKIGIQECQHQFRGRRWNCTTVHDSLAIFGPVLDKATRESAFVHAIASAGVAFAVTRSCAEGTAAICGCSSRHQGSPGKGWKWGGCSEDIEFGGMVSREFADARENRPDARSAMNRHNNEAGRQAIASHMHLKCKCHGLSGSCEVKTCWWSQPDFRAIGDFLKDKYDSASEMVVEKHRESRGWVETLRPRYTYFKVPTERDLVYYEASPNFCEPNPETGSFGTRDRTCNVSSHGIDGCDLLCCGRGHNARAERRREKCRCVFHWCCYVSCQECTRVYDVHTCK
expression levels of SOX17 and FOXA2 at 48 hours of differentiation as compared to the other GSK inhibitors [1]: substantially higher | abundance of pancreatic endoderm and endocrine cell types (PDX1, PTF1A, NKX6-1 and NKX2-2 induction) [2]: much greater abundance
